In US20230250157A1 (CALIFORNIA INSTITUTE OF TECHNOLOGY, published 2023):

Target: SARS-CoV-2 WA1 D614G spike on pseudovirus (SARS-CoV-2 WA1, UniProt P0DTC2 14-1252)
Test: cell-based or functional assay

B1: M8a-3 (antibody, V domains shown)
VH: QVQLQQPGAELVLPGASVKLSCKASGYTFTNYWMHWVKQRPGHGLEWIGEIDPFDTYIKINQKFKGKSTLTVDTSSSTAYMQLSSLTSEDSAVYYCARPDSSGYPVYFDYWGQGTTLTVSS
VL: DIVMTQSHKFMSTSVGDRVSITCKASQDVGTYIAWYQQKPGQSPKLLIYWASTRHTGVPDRFTGSGSGTNYTLTISSVQAEDLALYHCQQHYSTPYTFGGGTKLEIK
  pseudovirus neutralization IC50: 0.18 mg/L
